Results reported in the supplement of paper PMC9170038.

Tested on: MS2 coat protein
Assay: apparent KD of MS2 coat protein; designed switch direction (-1 OFF switch, 1 ON switch): 1; higher = weaker reporter binding
Method in brief: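 RNA switches sharing common flanks were transcribed by stalled E. coli RNA polymerase on Illumina chips. A doubling series of SNAP-549-labelled MS2 coat protein, from 0.7 or 1.5 nM to 3 µM, was applied in Tris-HCl pH 7.5 buffer with KCl, MgCl2, BSA, DTT, tRNA and Tween-20. Each step lasted 0.8–1.5 h at the bottom of the series and 10–20 min at the top. Normalised cluster fluorescence was curve-fitted, giving apparent KD as the per-design median over clusters.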

[1] = input ligand: microRNA oligo, concentration not stated
[2] = Eterna round: R95, input ligand: FMN 200 uM
[3] = Eterna round: R95, input ligand: microRNA oligo, concentration not stated
[4] = Eterna round: R95, input ligand: none

Row | Sequence | apparent KD of MS2 coat protein (input ligand: FMN 200 uM) [nM] | apparent KD of MS2 coat protein [1] [nM] | apparent KD of MS2 coat protein (input ligand: none) [nM] | apparent KD of MS2 coat protein [2] [nM] | apparent KD of MS2 coat protein [3] [nM] | apparent KD of MS2 coat protein [4] [nM]
1 | GUUAGGAAUCUAGCAUACAUGAGGAUCACCCAUGUAAGUGGGAAGGAUAUGGUACAGAAACUGUACCAGAAGGUCUUAUUGAUU [Omei SS(NG) 3 AV6] (Eterna round: R96, puzzle: Same State NG 3) | 45.1 | 40.8 | 80.1 |  |  | 
2 | GGUCUAGUUACAGGAUAUGCAUUGCUUUGCGAUGCAGAAGGGUGGUAACAUGAGGAUCACCCAUGUGGGCCAGCGCAAAAGCGC [JL SSNG1 cdp] (Eterna round: R96, puzzle: Same State NG 1) | 981 | 661 | 1440 |  |  | 
3 | AUACUCAUGUAAGGAUAUGCAGCCGUUUCGGCUGCAGAAGGUACUAUAAUACAUGAGGAUCACCCAUGUCUCUCGCAUUGCGAG [JL SSNG1 1.47] (Eterna round: R96, puzzle: Same State NG 1) |  | 49.2 |  |  |  | 
4 | UUCUGACAUGAGGAUCACCCAUGUGAGACAUAUGGAGAAUCUCAGGAUAUCCUGAGGAUCACCCAGGAGAAGGGAGAUCCGACC (Eterna round: R96, puzzle: Same State NG 3) | 32 | 43.7 | 45.7 |  |  | 
5 | UCGUUCAUCGUAGGAUAUCUAGGAUAUGAACGAGGAUCACCCGAGCAGCAUCAGCGCAUCAGAGGAGAGAAGGACGAUGAUGCG [pwkr ssNG2 2F5 2FMN.4] (Eterna round: R96, puzzle: Same State NG 2) | 1080 | 37.2 | 172 |  |  | 
6 | CGGGUACAUGAGGAUCACCCAUGUGGGAGGGAUGCAGGAUAUGUGGGAGGAGGGUAUGAAACAGAAGGGCAAGGAG [JR_SS!_Sub012] (puzzle: Same State 1) |  |  |  | 46.7 | 48.9 | 65.5
7 | UGUUAUUUGACAGGAUAUUGAUUGUUAAGUUUUUACAUGAGGAUCACCCAUGUUGUUCAUUCGUACAAGAAGGGUCAAGUUUUU [JR_SSNG2_Sub020] (Eterna round: R96, puzzle: Same State NG 2) |  | 52.6 |  |  |  | 
8 | AGCUAGGUGGCAGGAUAUGGGCACACCUACAUGAGGAUCACCCAUGUCUAAAGGUUGCAAAAGGACCAGAAGGGCCACGCUAGC [Onzaislege] (Eterna round: R96, puzzle: Same State NG 2) | 19.2 | 82.7 | 178 |  |  | 
9 | CUGAGCGAUCGAGGAUAUCACGUCGUUUAGACGUGAGAAGGCGAUCAUAACAUGAGGAUCACCCAUGUAUUACAUGAAGCUCAG [SSNG1/4-A3] (Eterna round: R96, puzzle: Same State NG 1) | 16.8 | 14.9 | 19.2 |  |  | 
10 | GAGAGAGGAAGCGAGGAUAUCGUGUGGAGUACAUGAGGAUCACCCAUGUUGUAGGUAGAGGUAGGCGAGAAGGCGCAGGAGAGGU [JR_SS2_Sub097] (puzzle: Same State 2) |  |  |  | 34 | 41.5 | 58.1
11 | AUUAUACAUGAGGAUCACCCAUGUAAUUAAUUAAUUAAGAUCAAGGAUAUCAGCUCGAAUAGAGCUGAGAAGGUGAUCACAUGU [SSNG3/20-B1] (Eterna round: R96, puzzle: Same State NG 3) |  | 218 |  |  |  | 
12 | AUUAAACAUGAGGAUCACCCAUGUCAACAAAGUCGAGGAUAUGGGCAAAUAAAUUAAGAACCAGAAGGCGAAUAAU [salish99_ss1_r3_057] (puzzle: Same State 1) |  |  |  |  | 266 | 
13 | ACAUGAAAUUUAGGAUAUUUUGUACCUACAUGUGACAUGAGGAUCACCCAUGUGGUAAGUAUGAGAAAGAAGGAAAAGAUAUGU [Equivalence 9 - Jieux - Same State NG 2] (Eterna round: R96, puzzle: Same State NG 2) | 71.8 | 61.6 | 70.9 |  |  | 
14 | UCGGGCGUACUUGCUGACAUGAGGAUCACCCAUGUAAUUGGGAAGGAUAUGGUUCCGUUUCGGUUCCAGAAGGUCCUGGGUGCU [salish99_SSNG3_r04_312] (Eterna round: R96, puzzle: Same State NG 3) | 819 | 331 | 443 |  |  | 
15 | GGAGCCGGUACUGAGGAUAUUCAUAUUAAAACAUGAGGAUCACCCAUGUAGGCCAGAAGGCCUUGGGAGAAGGCAGGCCAGCUCG [Atgexeedri - 4] (Eterna round: R96, puzzle: Same State 2) | 24.7 | 177 | 268 |  |  | 
16 | UAAUUAAGUCAAGGAUAUCACGUCGAUUAGACGUGAGAAGGUGACCAAUACAUGAGGAUCACCCAUGUAAUACAUGAAUAAUUA [SSNG1/12-B2] (Eterna round: R96, puzzle: Same State NG 1) | 22.7 | 53.2 | 56.4 |  |  | 

Row | Sequence | apparent KD of MS2 coat protein (input ligand: FMN 200 uM) [nM] | apparent KD of MS2 coat protein [1] [nM] | apparent KD of MS2 coat protein (input ligand: none) [nM] | apparent KD of MS2 coat protein [2] [nM] | apparent KD of MS2 coat protein [3] [nM] | apparent KD of MS2 coat protein [4] [nM]
17 | AGCCGAGACUGAGGAUAUUUUAAUCUACAUGAGGAUCACCCAUGUAACAACACGUGGUAUUGAUAGAAGAAGGCGGCUCGGCGC [Omei SS(NG)2 C] (Eterna round: R96, puzzle: Same State NG 2) | 24.3 | 50.4 | 64 |  |  | 
18 | GGUCCAGCCUGAGCUGGACGAAAGUAUGUACAUGAGGAUCACCCAUGUCAUGUAUAAGUUUUUUGUUUGUCUUGAAA [Sensorship 2 - Jieux - Sensor for hsa-mir-208a] (puzzle: Sensor for hsa-mir-208a) |  |  |  | 22.4 | 11.2 | 22.7
19 | GCGAGCGUACUUGCUACAUGAGGAUCACCCAUGUUUAUUGGACAGGAUAUGGUACCGUUUCGGUACCAGAAGGGUCCACAUGUG [JL SSNG3 3.86] (Eterna round: R96, puzzle: Same State NG 3) | 106 | 182 | 289 |  |  | 
20 | GCAGUACAUGAGGAUCACCCAUGUCUCUAAAGUCGAGGAUAUGGGCAGGUUAUAUCCGAACCAGAAGGCGAGCUGC [SS1 Teenbexe 12] (puzzle: Same State 1) |  |  |  | 81.5 | 301 | 339
21 | AGGUGAUAUGGAAAGGAUAUACGGUUUAGGACAUGAGGAUCACCCAUGUGGAAGAUGGCGAGAGAGUAGAAGGUUCGAAAUUGGU [JR_SS@_Sub024] (puzzle: Same State 2) |  |  |  | 43.4 | 75 | 77.4
22 | GGUGCCAAAUAAGCCUACAUGAGGAUCACCCAUGUAUGUAGGCAGGAUAUCGUAUGCAAAGCAUACGAGAAGGGCCGAGGCACC [Mat - Same State NG 3 - JL Mod - D57] (Eterna round: R96, puzzle: Same State NG 3) | 23.8 | 29.3 | 47.1 |  |  | 
23 | AGAUAGUGUGGAAAGGAUAUACGGUUGAGGACAUGAGGAUCACCCAUGUAGUAGAGGAAGGAAGGGUAGAAGGUUCAGGAUUGAU [JR_SS2_Sub018] (puzzle: Same State 2) |  |  |  | 70.2 | 43.1 | 50.4
24 | UAGAGAGGAAGCGAGGAUAUCGUGGGAGGAACAUGAGGAUCACCCAUGUGUGAUGUUGAGAGGGACGAGAAGGCGCGGGAAAGUA [JR_SS2_Sub079] (puzzle: Same State 2) |  |  |  | 171 | 194 | 277
25 | ACAUGAGACUUAGGAUAUGUUGUACCUACAUGUGACAUGAGGAUCACCCAUGUGGUAAGUAUGAGGCAGAAGGGAGAGAUAUGU [Equivalence 47 - Jieux - Same State NG 2] (Eterna round: R96, puzzle: Same State NG 2) | 54.3 | 85.6 | 77.7 |  |  | 
26 | UUAUCAUUGCAAGGAUAUUGAUUACAUGAGGAUCACCCAUGUUAAUGAACACUAUGUACUACUAACAAGAAGGUGCUAUAAAUU [JR_SSNG2_Sub041] (Eterna round: R96, puzzle: Same State NG 2) | 35.1 | 28 | 34.3 |  |  | 
27 | GAAGGAUGAGCGUAGGAUAUAGGAGGAGUGACAUGAGGAUCACCCAUGUAGUAGGAGGGAGGGUACUAGAAGGACGAGGAAGAAG [JR_SS2_Sub067] (puzzle: Same State 2) |  |  |  | 39.7 | 49.3 | 51.5
28 | GAGUAGUUGGGAGGAUAUCGAUUGUUAUAGAAUCGAGAAGGUCCUAACAUGAGGAUCACCCAUGUAGGACUAUUCCUGUGUAUC [Parity 75 - Jieux - Same State NG 1] (Eterna round: R96, puzzle: Same State NG 1) | 9.81 | 7.5 | 10.6 |  |  | 
29 | UACAAUCUAUCUGAGGAUAUCAUGAUUUAAACAUGAGGAUCACCCAUGUGCAGGAAAACUGCAUAUGAGAAGGCAGAUAGAUUGU [salish99_ss2_r3_063] (puzzle: Same State 2) |  |  |  | 135 | 297 | 241
30 | CGUCCGGCCUGUGCUGGCCGGUGGCUUGUACAUGAGGAUCACCCAUGUUCUUGUGCUGGCGUUUUGCUCGUCUUGUG [salish99_mir208a_r3_020] (puzzle: Sensor for hsa-mir-208a) |  |  |  | 28.2 | 20.7 | 32.5
31 | UGGAUCUAGGCUUGCCUGGGUCCAUGUUGACAUGAGGAUCACCCAUGUGUAUUUUUUUUGCUUUUUGUUUGUCAACU [JL A Humble Attempt mod 11] (puzzle: Sensor for hsa-mir-208a) |  |  |  | 25.2 | 12.7 | 26.5
